The values below come from PMC4263359, “Vesicular Stomatitis Virus Polymerase's Strong Affinity to Its Template Suggests Exotic Transcription Models” (PLoS Computational Biology, 2014).

A word on the Kd: it is a measure of binding affinity in units of concentration. Higher therefore signals a looser complex.

This assay deals with T1, VSV L protein (vesicular stomatitis virus (endogenous …, UniProt P03523 1-2109)).
T1 construct: also called catalytic unit of the VSV polymerase; polymerase
The assay can be described thus: co-sedimentation. As to conditions: partners not purified.

T1 sequence (P03523 whole entry): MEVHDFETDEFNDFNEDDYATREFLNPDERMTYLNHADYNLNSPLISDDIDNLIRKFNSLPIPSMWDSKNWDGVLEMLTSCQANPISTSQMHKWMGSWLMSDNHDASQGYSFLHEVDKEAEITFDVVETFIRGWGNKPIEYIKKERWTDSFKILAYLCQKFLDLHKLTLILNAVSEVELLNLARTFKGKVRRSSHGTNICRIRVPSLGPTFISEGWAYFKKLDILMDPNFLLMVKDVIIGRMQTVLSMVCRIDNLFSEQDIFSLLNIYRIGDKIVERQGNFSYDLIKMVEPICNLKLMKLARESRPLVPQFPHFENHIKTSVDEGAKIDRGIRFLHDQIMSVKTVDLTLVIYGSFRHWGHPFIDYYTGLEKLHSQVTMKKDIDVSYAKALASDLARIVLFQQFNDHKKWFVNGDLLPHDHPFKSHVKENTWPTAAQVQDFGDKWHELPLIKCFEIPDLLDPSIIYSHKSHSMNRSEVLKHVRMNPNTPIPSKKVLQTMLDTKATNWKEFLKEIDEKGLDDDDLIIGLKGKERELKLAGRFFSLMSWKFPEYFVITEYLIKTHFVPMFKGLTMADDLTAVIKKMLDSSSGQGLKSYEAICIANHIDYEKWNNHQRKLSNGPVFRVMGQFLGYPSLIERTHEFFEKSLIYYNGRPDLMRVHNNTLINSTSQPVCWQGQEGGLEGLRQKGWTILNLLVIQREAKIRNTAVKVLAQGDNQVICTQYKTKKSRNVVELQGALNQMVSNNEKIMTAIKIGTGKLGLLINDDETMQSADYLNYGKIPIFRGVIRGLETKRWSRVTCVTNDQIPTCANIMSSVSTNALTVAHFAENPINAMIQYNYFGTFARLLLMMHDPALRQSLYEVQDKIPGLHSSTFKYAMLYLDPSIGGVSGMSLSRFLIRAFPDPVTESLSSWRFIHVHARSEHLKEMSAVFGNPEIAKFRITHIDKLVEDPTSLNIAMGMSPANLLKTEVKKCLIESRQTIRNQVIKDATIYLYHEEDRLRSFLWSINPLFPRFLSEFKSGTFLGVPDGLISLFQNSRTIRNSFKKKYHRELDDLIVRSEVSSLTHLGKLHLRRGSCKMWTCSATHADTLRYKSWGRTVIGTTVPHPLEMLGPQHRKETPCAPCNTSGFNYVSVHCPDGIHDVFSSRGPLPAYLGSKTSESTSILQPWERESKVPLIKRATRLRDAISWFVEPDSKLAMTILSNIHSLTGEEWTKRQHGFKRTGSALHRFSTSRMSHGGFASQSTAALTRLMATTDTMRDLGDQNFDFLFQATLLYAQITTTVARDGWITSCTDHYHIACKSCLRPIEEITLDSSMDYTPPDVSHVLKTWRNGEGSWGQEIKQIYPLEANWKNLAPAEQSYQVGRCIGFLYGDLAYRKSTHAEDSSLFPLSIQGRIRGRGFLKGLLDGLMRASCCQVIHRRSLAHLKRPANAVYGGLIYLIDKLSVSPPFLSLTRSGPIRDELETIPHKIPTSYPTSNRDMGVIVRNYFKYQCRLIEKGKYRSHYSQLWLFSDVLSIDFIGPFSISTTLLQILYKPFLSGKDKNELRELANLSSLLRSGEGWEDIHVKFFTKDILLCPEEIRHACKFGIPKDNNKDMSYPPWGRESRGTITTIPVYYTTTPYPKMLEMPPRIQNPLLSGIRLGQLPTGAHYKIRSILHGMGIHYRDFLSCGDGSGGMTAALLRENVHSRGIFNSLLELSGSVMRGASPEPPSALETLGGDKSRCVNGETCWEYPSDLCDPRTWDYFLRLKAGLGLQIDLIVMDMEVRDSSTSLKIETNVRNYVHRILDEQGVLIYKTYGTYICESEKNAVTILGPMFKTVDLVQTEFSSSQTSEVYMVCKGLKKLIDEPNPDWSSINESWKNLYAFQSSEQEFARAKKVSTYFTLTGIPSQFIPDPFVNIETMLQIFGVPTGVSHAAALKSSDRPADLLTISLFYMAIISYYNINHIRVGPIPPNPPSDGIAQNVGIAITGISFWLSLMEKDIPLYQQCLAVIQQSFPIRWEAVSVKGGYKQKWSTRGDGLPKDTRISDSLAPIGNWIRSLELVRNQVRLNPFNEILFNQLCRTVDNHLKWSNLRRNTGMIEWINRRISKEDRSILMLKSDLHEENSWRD

B1: full genome template (N-RNA) bound with P and L extracted from detergent-disrupted virions (complex)
chain 1: MSVTVKRIIDNTVIVPKLPANEDPVEYPADYFRKSKEIPLYINTTKSLSDLRGYVYQGLKSGNVSIIHVNSYLYGALKDIRGKLDKDWSSFGINIGKAGDTIGIFDLVSLKALDGVLPDGVSDASRTSADDKWLPLYLLGLYRVGRTQMPEYRKKLMDGLTNQCKMINEQFEPLVPEGRDIFDVWGNDSNYTKIVAAVDMFFHMFKKHECASFRYGTIVSRFKDCAALATFGHLCKITGMSTEDVTTWILNREVADEMVQMMLPGQEIDKADSYMPYLIDFGLSSKSPYSSVKNPAFHFWGQLTALLLRSTRARNARQPDDIEYTSLTTAGLLYAYAVGSSADLAQQFCVGDNKYTPDDSTGGLTTNAPPQGRDVVEWLGWFEDQNRKPTPDMMQYAKRAVMSLQGLREKTIGKYAKSEFDK
chain 2: MDNLTKVREYLKSYSRLDQAVGEIDEIEAQRAEKSNYELFQEDGVEEHTKPSYFQAADDSDTESEPEIEDNQGLYAQDPEAEQVEGFIQGPLDDYADEEVDVVFTSDWKPPELESDEHGKTLRLTSPEGLSGEQKSQWLSTIKAVVQSAKYWNLAECTFEASGEGVIMKERQITPDVYKVTPVMNTHPSQSEAVSDVWSLSKTSMTFQPKKASLQPLTISLDELFSSRGEFISVGGDGRMSHKEAILLGLRYKKLYNQARVKYSL
notes: also called whole genome template; copies: 1250 +
B1: the affinity, expressed as Kd, was 0.02 nM. This lies in the picomolar range.
